Data from article PMC12216677, “Structural dynamics of IDR interactions in human SFPQ and implications for liquid–liquid phase separation” (Acta Crystallographica Section D: Structural Biology, 2025).

What was measured:
[1] = biological target: T1, full-length SFPQ (splicing factor proline- and glutamine-rich) (Homo sapiens), P23246; experiment: SANS; static cell, 1:20 hSFPQ:dSFPQ at 0.63 mg/ml, no match-out, 150 mM KCl, 1.5% glycerol, 20 mM HEPES, 1 mM DTT pH 7.4 in H2O; conditions: remark: other sources report otherwise
T1 chain: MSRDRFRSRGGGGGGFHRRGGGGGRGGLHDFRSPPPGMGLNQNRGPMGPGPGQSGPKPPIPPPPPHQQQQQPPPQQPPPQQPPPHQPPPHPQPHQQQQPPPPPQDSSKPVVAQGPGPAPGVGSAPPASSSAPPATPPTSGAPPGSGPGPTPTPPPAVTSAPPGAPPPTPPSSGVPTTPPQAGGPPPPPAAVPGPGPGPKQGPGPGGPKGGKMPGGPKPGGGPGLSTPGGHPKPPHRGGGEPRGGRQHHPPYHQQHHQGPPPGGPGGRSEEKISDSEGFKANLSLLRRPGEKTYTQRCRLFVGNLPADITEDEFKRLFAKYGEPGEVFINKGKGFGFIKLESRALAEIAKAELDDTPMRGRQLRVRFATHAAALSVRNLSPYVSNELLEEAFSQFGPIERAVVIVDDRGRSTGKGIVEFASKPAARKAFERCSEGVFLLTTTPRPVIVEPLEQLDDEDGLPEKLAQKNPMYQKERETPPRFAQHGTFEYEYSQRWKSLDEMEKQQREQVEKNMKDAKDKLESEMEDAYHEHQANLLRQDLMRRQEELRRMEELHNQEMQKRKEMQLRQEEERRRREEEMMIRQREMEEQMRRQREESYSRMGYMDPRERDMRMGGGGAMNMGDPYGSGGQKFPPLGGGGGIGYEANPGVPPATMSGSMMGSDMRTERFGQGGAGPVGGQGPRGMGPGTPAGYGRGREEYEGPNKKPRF

[2] = biological target: T1, full-length SFPQ (splicing factor …); experiment: SEC-SAXS; inline SEC-SAXS co-flow, Superdex 200 5/150, 500 mM KNO3, 20 mM HEPES pH 7.4, 5% glycerol, 1 mM DTT, 25 °C; injected at 4.2 mg/ml (full length) or 5 mg/ml (1–598); conditions: remark: other sources report otherwise
[3] = biological target: the molecule itself; experiment: SEC-SAXS; inline SEC-SAXS co-flow, Superdex 200 5/150, low salt: 150 mM KCl, 20 mM HEPES pH 7.4, 5% glycerol, 5 mM MgCl2, 1 mM DTT, 25 °C; injected at 4.91 mg/ml
[4] = biological target: the molecule itself; experiment: SEC-SAXS; inline SEC-SAXS co-flow, Superdex 200 5/150, 500 mM KNO3, 20 mM HEPES pH 7.4, 5% glycerol, 1 mM DTT, 25 °C; injected at 4.2 mg/ml (full length) or 5 mg/ml (1–598)

B1: full-length SFPQ (splicing factor proline- and glutamine-rich), P23246 1-707 (natural protein)
chain: MSRDRFRSRGGGGGGFHRRGGGGGRGGLHDFRSPPPGMGLNQNRGPMGPGPGQSGPKPPIPPPPPHQQQQQPPPQQPPPQQPPPHQPPPHPQPHQQQQPPPPPQDSSKPVVAQGPGPAPGVGSAPPASSSAPPATPPTSGAPPGSGPGPTPTPPPAVTSAPPGAPPPTPPSSGVPTTPPQAGGPPPPPAAVPGPGPGPKQGPGPGGPKGGKMPGGPKPGGGPGLSTPGGHPKPPHRGGGEPRGGRQHHPPYHQQHHQGPPPGGPGGRSEEKISDSEGFKANLSLLRRPGEKTYTQRCRLFVGNLPADITEDEFKRLFAKYGEPGEVFINKGKGFGFIKLESRALAEIAKAELDDTPMRGRQLRVRFATHAAALSVRNLSPYVSNELLEEAFSQFGPIERAVVIVDDRGRSTGKGIVEFASKPAARKAFERCSEGVFLLTTTPRPVIVEPLEQLDDEDGLPEKLAQKNPMYQKERETPPRFAQHGTFEYEYSQRWKSLDEMEKQQREQVEKNMKDAKDKLESEMEDAYHEHQANLLRQDLMRRQEELRRMEELHNQEMQKRKEMQLRQEEERRRREEEMMIRQREMEEQMRRQREESYSRMGYMDPRERDMRMGGGGAMNMGDPYGSGGQKFPPLGGGGGIGYEANPGVPPATMSGSMMGSDMRTERFGQGGAGPVGGQGPRGMGPGTPAGYGRGREEYEGPNKKPRF
stoichiometry N [1]: 2 | stoichiometry N [2]: 2

B2: SFPQ residues 1–598 (domain or fragment, Homo sapiens, UniProt P23246 1-598, looked up)
chain: MSRDRFRSRGGGGGGFHRRGGGGGRGGLHDFRSPPPGMGLNQNRGPMGPGPGQSGPKPPIPPPPPHQQQQQPPPQQPPPQQPPPHQPPPHPQPHQQQQPPPPPQDSSKPVVAQGPGPAPGVGSAPPASSSAPPATPPTSGAPPGSGPGPTPTPPPAVTSAPPGAPPPTPPSSGVPTTPPQAGGPPPPPAAVPGPGPGPKQGPGPGGPKGGKMPGGPKPGGGPGLSTPGGHPKPPHRGGGEPRGGRQHHPPYHQQHHQGPPPGGPGGRSEEKISDSEGFKANLSLLRRPGEKTYTQRCRLFVGNLPADITEDEFKRLFAKYGEPGEVFINKGKGFGFIKLESRALAEIAKAELDDTPMRGRQLRVRFATHAAALSVRNLSPYVSNELLEEAFSQFGPIERAVVIVDDRGRSTGKGIVEFASKPAARKAFERCSEGVFLLTTTPRPVIVEPLEQLDDEDGLPEKLAQKNPMYQKERETPPRFAQHGTFEYEYSQRWKSLDEMEKQQREQVEKNMKDAKDKLESEMEDAYHEHQANLLRQDLMRRQEELRRMEELHNQEMQKRKEMQLRQEEERRRREEEMMIRQREMEEQMRRQREESYS
notes: The GFP tag was removed with TEV protease; that the His tag left with it is surmised from the second nickel column
stoichiometry N [3]: 2 | stoichiometry N [4]: 2
